# Measurements reported in the nanobody polyreactivity screen of Harvey et al. (2022).
# Assay: yeast display, Sf9 membrane polyspecificity reagent, FACS + sequencing; frameworks hold sequencing errors
# Procedure, shortened: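 Galactose induction of a Saccharomyces cerevisiae BJ5465 synthetic nanobody display library ran 36–48 hours. The cells were then stained for 1 hour at 4 °C with 10% biotinylated, detergent-solubilized Sf9 membrane reagent, pulled down on streptavidin microbeads and FACS-sorted into low and high (top ~1%) gates on expression and reagent-binding fluorescence. Labels for polyreactivity follow the gate of origin.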
row,Sequence,polyreactivity (PSR sort gate)
1,QVQLVESGGGLVQGGGSLRLSCAASGSIFYPYAMGWYRQAPGKERELVARITSSTGSTYYADSVKGRCTISRATAKNTVYLQMTSLKPEDTAVYYCNARRQRNKSYNYWGQGTQVTVSS,high polyreactivity
2,QVQLVESGGGLVQGGGSLRLSCAASGSISDVYAMGWYRQAPGKERELVAANTSGASTYYADSVKGRFTISRDNAKNTVYLQMNSLKPEDTAVYYCAADSDSQWGMDYWGQGTQVTVSS,low polyreactivity
3,QVQLVESGGGLVQGGGSLRLSCAASGSNLYKNPMGWYRPAPGKERELVASITYSGGRTNYADSVKGRFTISRDTAKNTVYLQMNSLKPEDTSVYYCPAAYVYYNPAYRYAPTAVDYDYWGQGTQVTVSS,low polyreactivity
4,QVQLVESGGGLVQGGGSLRLSCAASGSTFWANAMGWYRQATGKERELVAGITWNAGSTYYADSVKGRFTISRDNAKNPVYLQMNRLKPEDTAVFYCAASYHFQGWGPGYNSWGQGTQVTVSS,low polyreactivity
5,QVQLVESGGGLVQGGGSLRLSCASSGSIFGWNAMGWYRPAPGKERELVAAISFSGSCTFYADSVKGRFTISRDNAKNTVYLQMNSLKPEDTAVYDCAAEPYSVYEYYYWGQGTQVTGSS,high polyreactivity
6,QVQLVESGGGLVQPGGSLRLSCAASGGTFYRYAMGWYIQAPGKERELVAAISSRGGSTYYADSVKGRYTISRDNAKNTVYLQMNSLKPEDTAVYYCAALFYLTQWQYDYWGQGTQVTVSS,high polyreactivity
7,QVQLVESGGGLVQPGGSLRLSCAASGIISFYNAMGWYRPAPGKERELVAAITWSVGSTYYADSVKGRFTISRDNAKNTVYLQMNSLKPEDTAVYYCNVSPGFWRSIPLYYNLRYGYWGQGTQVTVSS,low polyreactivity
8,QVQLVESGGGLVQPGGSLRLSCAASGLTISYYAMGWYRQAPGKEREFVAAITSRGGDTYYADSVKGRFTISRDNAKNTVYLQMNSLKPEDTAVYYCAVRPRYYGTYRYYYWGQGTQVTVSS,high polyreactivity
9,QVQLVESGGGLVQPGGSLRLSCAASGRILYYHAMAWYRQAPGKERELVARISSGGSTNYADSVKGRFTISRDNAKNTVYLQMNSLKPEDTAVSYCAVAKGGLAWGVGRGGRYDYWGQGTQVTVSS,low polyreactivity
10,QVQLVESGGGLVQPGGSLRLSCAASGSIFGYNAMGWYRPAPGKERELVAVITRSDGSTYYADSVKGRFTISRDNAKNTVYLQMNSLKPEDTAVYYCNAETHVYYWGVVIYEYNYWGQGTQVTVSS,low polyreactivity
11,QVQLVESGGGLVQPGGSLRLSCAASGSIYTNAMGWYRQAPGKERELVAAISWSGGRTYYADSVKGRFTISRDNAKNTVYFQLNSLKPEDTAVYYCNTRGTRIASGHYYWGQGTQVTVSS,high polyreactivity
12,QVQLVESGGGLVQPGGSLRLSCAASGSTFWLYAMGWYRQAPGQERELVAAISARTGSTYYADSVKGRFTISRDNAKNTVYLQMNSLKPEDTAVYYCNVRYRGTPYGYWGQGTQVTVSS,low polyreactivity
13,QVQLVESGGGLVQPGRSLRLSCAASGFTFYIYAMGWYRQAPGKERELVAAISGRGSSTYYADSVKGRFTISRDNAKNSVYLQMNSQTPEDTAVYYCAAGKSKYGVRGDYWGQGTQVTVSS,high polyreactivity
14,QVQLVESGGGLVQPRGSLRLSCAASGGTFKFYAMGWYRQAPGKDRELVAAITSGGSTNYADSVKGRFTISRDNAKNTVYLLMNSLKPEDTALYYCNADFYQRYGVFSSRRYFYWGQGTQVTVSS,low polyreactivity
15,QVQLVESGGGLVQPVGSLRLSCAASGYTFPRYTMGWSRQAPGKERELVAAITSSGSTNYADSVKGRFTISRDNAKNTVYLQMNSLKPEDTAVYYCNKARIRTWSRGYDYWGQGTQLTVSS,high polyreactivity
16,QVQLVESGGGLVQSGGSLRLRCAASGRIFGGYAMGWYRQAPGKERELVAAISWRGGSTSYADSVKGRFTISRDNAKNTVYLQMNSLKPEDTAVYYCAKYWGHTYGSWGQGTQVTVSS,high polyreactivity
17,QVQLVESGGGLVQSGGSLRLSCAASGFTFSWYAMGSYRQAPGKERELVAAISWDGDSTYYADSVKGRCTISRDNAKNTVFLQMNSLKPEETAVYYCAADFSYYWDGYDYWGQGSQVTVSS,high polyreactivity
18,QVQLVESGGGLVQSGGSLRLSCAASGFTFYFNAMGWYRPAPGKERELVAAIRWSGGNTYYADSVKGRFTISRDNAKNTVYLQMNSLKPEDTAVYYCNKDPWHDTYSVKEYDYWGQGTQVTVSS,low polyreactivity
19,QVQLVESGGGLVQSGGSLRLSCAASGGSFTFYAMGWYRQAPGKERELVATINWSGGSTYYADSVKGRFTISRDNAKNTVYLQMNSLKPEDTAVYYCNAAWPYKSVEYWGQGTQVTVSS,low polyreactivity
20,QVQLVESGGGLVQSGGSLRLSCAASGGTFHKYDMGWYRQAPGKERELVAAITRSGGSTYYADSVKGRFTISRDNAKNTVYLQMNSLKPEDTAVYFCNAGKRGSTYYYWGQGTQVTVSS,high polyreactivity
21,QVQLVESGGGLVQSGGSLRLSCAASGIIFDSYAMGWYRQAPGKERELVAAISSRGASTYYADSVKGRFTISRDNAKYTVYLQMNSLKPEDTAVYYCNAVYYAYRYGSSYDWGQGTQVTVSS,high polyreactivity

row,Sequence,polyreactivity (PSR sort gate)
1,QVQLVESGGGLVQSGGSLRLSCAASGIIFEYYDMGWYRQAPGKEREFVAAIDSGGSTYYADSVKGRFTISRDNAKNTVYLQMNSLKPEDTAVYYCAASRPPNTSNTGYGSWGQGTQVTVSS,low polyreactivity
2,QVQLVESGGGLVQSGGSLRLSCAASGIIFSDYAMGWYRQAPGKERELVATITRSVRTSYADSVKGRFTISRDNAKNTVYLQMNSLKPEDTAVYYCNADVVGAVIAYDYWGQGTQVTVSS,low polyreactivity
3,QVQLVESGGGLVQSGGSLRLSCAASGITFYVYTMGWYRQAPGKERELVAAINGSGGSTNYADSVKGRFTISRDNAKNTVHLQMNSLKPEDTAVYYCAADWSLRLYDYWGQGTQVTVSS,low polyreactivity
4,QVQLVESGGGLVQSGGSLRLSCAASGITSHPYDMGWSRQAPGKERELVAVITSGGSTSYADSVKGRFTISRDNAKNTVYLQMNRLKPEDTAVYYCNADWFTPAQPWYRYFIRYDYWGQGTEVTVSS,low polyreactivity
5,QVQLVESGGGLVQSGGSLRLSCAASGRIFKLYAMGWYRQAPGKERELVAAITRTGTSTYYADSVKGRFTISRDNAKNTVYLQMNSLKPEDTAVYYCNKTTLLTVEYDYWGQGTQVTVSS,low polyreactivity
6,QVQLVESGGGLVQSGGSLRLSCAASGRIFYYNAMGWYRQAPGKERELVAAITSSSGSSTYYADSVKGRFTISRDNAKNTVYLQMNSLKPEDTAVYYCNAASLDRFFGYRYNDDDYWGQGTQVTVSS,low polyreactivity
7,QVQLVESGGGLVQSGGSLRLSCAASGRTFLTYVMGWYRPAPGKERELVAAITRGGRTNYAHSEKGRFTISRDNAKNTVDLQMTSLKPEDTAVYYCARDDTPRYDYWGQGTQVTVSS,low polyreactivity
8,QVQLVESGGGLVQSGGSLRLSCAASGSTFDPNTMGSYRQAPGKERELVATITSVDSTNYADSVKGRFTISRDNAMNTVYLQMNSLIPEDTAVYYCNAAYGGVFFYAYDYWGQGTQVTVSS,low polyreactivity
9,QVQLVESGGGLVQSGGSLRLSCAASGSTFKFYAMGWYRQAPGKEREFVAAITSSGDSTYYADSVKGRFTISRDNAKNTVYLQMNSLKPEDTAVYYCAARLRWRYSYDYWGQGTQVTVSS,high polyreactivity
10,QVQLVESGGGLVQSGGSLRLSCAASGSTFQSNAMGWYRQAPGKERELVATITQSGATTYYADSVKGRFTISRDNAKNTVYLQMNSLKPEDSAVYYCNVDTYQKRWFWLDLDGGYWGQGTQVTVSS,low polyreactivity
11,QVQLVESGGGLVQSGGSLRLSCAASGSTFSTYAMGWYRQAPGKERQLVAGITGSGGRTYYADSVKGRFTISRDNAKHTVYLQMNSMKPEDTGVYYCAASTRGYKWVGRDYDYWGQGTQVTVSS,high polyreactivity
12,QVQLVESGGGLVQSGGSLRLSCAASGSTFVWYAMGWYRQAPGKERELVAAITDSGDDTYYADSVKGRFTISRDNAKNTVYLQMNSLKAEDNAVYYCAVVAWSVPPYDYWGQGTQVTVSS,low polyreactivity
13,QVQLVESGGGLVQSGGSLRLSCAASGSTIPPNAMGWYRQAPGKERELVAGISYGGSTTYADSVKGRFTISRDNAKNTVYLQMNSLKPEDTAVYYCAADQPYWRDYDYWGQGTQVTVSS,low polyreactivity
14,QVQLVESGGGLVQSGGSLRLSCGASGLIYGPNSMGWYRQAPAKERELVAAITKSGDSTYYADSVKGRFTISRDNAKNTVYLQMNSLKPEDTAVYYCAAEWYPYPWGYGYWGQGTQVTVSS,low polyreactivity
15,QVQLVESGGGLVQSGVSLRLSCAASGITFYSIAIGWYRPATGKEMELVAANTRRGGSKLNADSVKGRFTNSRDNSKNTVYLQMNSLKPEDTAVYFCAADVPWWSYSDDYWGQGTKVTVSS,high polyreactivity
16,QVQLVESGGGLVQSGVSLRLSCAASGSIFDPYAMGWYRPAPGKERELVAAITSGGSTYYADSVKGRFTISRDNAKNTVYLQMNSLKPEDTAVYYCAKDFDIYYSKYDYWGQGTQVTVSS,low polyreactivity
17,QVQLVESGGGLVQSVGSLRLSCAASGFTFRWYAMGWYRQAPGKERELVAAITSRGGTTYYADSVKGRFTISRDNAKNTVYLQMNSLNPEDTAVYYCAARRAGRRGYYYWGQGTQVTVSS,high polyreactivity
18,QVQLVESGGGLVQTGGSLRLSCAASGFIFGPYVMGWYRQAPRKERELFAAISSDGSTTYADSVKGRFTISRDNEKNTVYLQMNSLKPEDTAVYYFAAEDQQNGYDYWGQGTQVTVSS,low polyreactivity
19,QVQLVESGGGLVQTGGSLRLSCAASGRIFNGNAMGWYRQAPGKERELVAAITKSGGNTYYADSVKGRFTISRDNAKNTVYLEMNSLKQEDTAVYYCNAYYSLGAWKGAYDYWGQGTQVTVSS,low polyreactivity
20,QVQLVESGGGLVQTGGSLRLSCAASGSTFNQYDMGWYRQAPGKERELVAAINRDGSTYYADSVKGRFTISRDNAKNTVYLQMNSLNPEDTAVYYWNAVGWYTYFYGSRKYNSWGQGTEVTVSS,low polyreactivity
